What all share (test): immunofluorescence on HEK-293T expressing the clone, normalised to wild type
The target of assay [1] is T1, CXCR4 mutation library clone 185 (E277A, I245V, N298S) (human, UniProt P61073 1-352).
T1 chain: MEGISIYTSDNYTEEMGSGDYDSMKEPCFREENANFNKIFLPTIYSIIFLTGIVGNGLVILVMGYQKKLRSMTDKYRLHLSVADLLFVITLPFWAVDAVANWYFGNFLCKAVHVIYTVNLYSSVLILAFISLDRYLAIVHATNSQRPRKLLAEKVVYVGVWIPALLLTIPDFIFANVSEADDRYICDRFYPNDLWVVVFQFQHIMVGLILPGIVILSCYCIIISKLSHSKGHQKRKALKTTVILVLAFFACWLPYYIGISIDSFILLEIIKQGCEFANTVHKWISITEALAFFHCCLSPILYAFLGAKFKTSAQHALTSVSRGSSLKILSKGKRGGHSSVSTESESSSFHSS

Assay [2] has as its target T2, CXCR4 mutation library clone 2834 (E179V, G258E) (human, UniProt P61073 1-352).
T2 chain: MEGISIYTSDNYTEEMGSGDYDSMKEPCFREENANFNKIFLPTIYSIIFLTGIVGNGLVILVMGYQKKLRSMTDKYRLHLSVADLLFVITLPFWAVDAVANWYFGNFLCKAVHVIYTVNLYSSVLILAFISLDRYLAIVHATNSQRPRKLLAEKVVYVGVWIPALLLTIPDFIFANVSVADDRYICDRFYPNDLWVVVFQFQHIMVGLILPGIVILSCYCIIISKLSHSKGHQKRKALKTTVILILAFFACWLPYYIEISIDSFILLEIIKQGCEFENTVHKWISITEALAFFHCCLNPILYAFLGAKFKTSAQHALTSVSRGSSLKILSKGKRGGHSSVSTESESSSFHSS

Assay [3] concerns the target CXCR4 mutation library clone 2270 (V196E) (human, UniProt P61073 1-352).
Assay [4] addresses CXCR4 mutation library clone 2084 (D187V) (human, UniProt P61073 1-352).
Assay [5] has as its target CXCR4 mutation library clone 914 (N192K) (human, UniProt P61073 1-352).
The target in assay [6] is T3, CXCR4 mutation library clone 709 (P163L, S178I) (human, UniProt P61073 1-352).
T3 chain: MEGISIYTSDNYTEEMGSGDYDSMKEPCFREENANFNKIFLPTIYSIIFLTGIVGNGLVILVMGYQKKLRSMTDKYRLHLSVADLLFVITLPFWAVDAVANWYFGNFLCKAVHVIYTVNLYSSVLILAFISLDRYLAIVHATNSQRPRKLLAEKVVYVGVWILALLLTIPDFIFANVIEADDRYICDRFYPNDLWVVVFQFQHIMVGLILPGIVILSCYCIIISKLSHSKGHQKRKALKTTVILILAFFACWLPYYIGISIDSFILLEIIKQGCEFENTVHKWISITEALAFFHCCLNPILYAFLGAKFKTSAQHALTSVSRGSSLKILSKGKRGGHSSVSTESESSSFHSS

The target in assay [7] is T4, CXCR4 mutation library clone 913 (F189S, K308R) (human, UniProt P61073 1-352).
T4 chain: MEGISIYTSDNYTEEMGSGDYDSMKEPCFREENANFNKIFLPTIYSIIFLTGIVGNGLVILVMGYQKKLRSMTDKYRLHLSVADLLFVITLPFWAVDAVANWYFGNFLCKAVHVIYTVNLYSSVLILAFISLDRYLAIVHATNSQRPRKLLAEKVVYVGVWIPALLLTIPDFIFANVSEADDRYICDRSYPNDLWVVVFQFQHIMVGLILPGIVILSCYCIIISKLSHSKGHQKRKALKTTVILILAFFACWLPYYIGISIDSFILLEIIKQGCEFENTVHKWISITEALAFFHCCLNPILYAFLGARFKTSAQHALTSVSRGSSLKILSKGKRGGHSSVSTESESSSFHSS

Assay [8] has as its target CXCR4 mutation library clone 3630 (W195R) (human, UniProt P61073 1-352).
The target of assay [9] is T5, CXCR4 mutation library clone 3728 (D187A, Y157C) (human, UniProt P61073 1-352).
T5 chain: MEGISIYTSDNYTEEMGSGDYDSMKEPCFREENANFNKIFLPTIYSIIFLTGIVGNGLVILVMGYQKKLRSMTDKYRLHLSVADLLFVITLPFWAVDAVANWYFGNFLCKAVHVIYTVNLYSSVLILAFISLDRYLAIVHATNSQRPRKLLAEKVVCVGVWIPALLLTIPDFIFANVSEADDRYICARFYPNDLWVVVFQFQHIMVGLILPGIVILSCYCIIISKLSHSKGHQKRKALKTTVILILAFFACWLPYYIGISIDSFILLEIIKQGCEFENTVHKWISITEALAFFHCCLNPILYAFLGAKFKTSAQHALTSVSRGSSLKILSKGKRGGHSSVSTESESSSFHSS

The target of assay [10] is T6, CXCR4 mutation library clone 465 (F189L, S319P, V155E) (human, UniProt P61073 1-352).
T6 chain: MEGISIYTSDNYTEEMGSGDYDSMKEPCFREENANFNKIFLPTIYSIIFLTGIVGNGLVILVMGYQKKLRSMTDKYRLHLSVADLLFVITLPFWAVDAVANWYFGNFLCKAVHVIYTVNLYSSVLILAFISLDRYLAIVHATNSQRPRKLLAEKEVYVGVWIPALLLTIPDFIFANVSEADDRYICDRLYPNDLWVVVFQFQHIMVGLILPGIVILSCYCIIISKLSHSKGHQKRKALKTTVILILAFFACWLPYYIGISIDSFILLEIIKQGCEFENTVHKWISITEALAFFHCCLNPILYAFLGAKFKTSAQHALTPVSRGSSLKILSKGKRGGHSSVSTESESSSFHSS

The values that follow come from US20110117113A1, “IMMUNOGLOBULIN SINGLE VARIABLE DOMAIN DIRECTED AGAINST HUMAN CXCR4 AND OTHER CELL ASSOCIATED PROTEINS AND METHODS TO GENERATE THEM” (priority 2009, published 2011).

B1: Nanobody 238D4 (VHH)
VHH: EVQLMESGGGLVQAGGSLRLSCAASGRTFNNYAMGWFRRAPGKEREFVAAITRSGVRSGVSAIYGDSVKDRFTISRDNAKNTLYLQMNSLKPEDTAVYTCAASAIGSGALRRFEYDYSGQGTQVTVSS
As to B1, the “% immunofluorescence” value in [1] is 69.3%; in assay [2], 19.5%; in assay [3], 94%; in assay [4], -8%; in assay [5] it was 55.8%; in assay [6], 30%. Also, the “% immunofluorescence” value in assay [7] was -16.9%; in assay [8], 58.8%; in assay [9], -16.4%; in assay [10], 12.2%.
